The text below walks through data of the nanobody polyreactivity screen of Harvey et al. (2022).

The series can be described thus: yeast display, Sf9 membrane polyspecificity reagent, FACS + sequencing; frameworks hold sequencing errors. An outline of the steps:
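Using colony PCR, genes from sorted yeast display clones were amplified, then sequenced on MiSeq at 2 × 250 and filtered by CDR length. The clones had been stained with 10% biotinylated, detergent-solubilized Sf9 membrane reagent for 1 hour at 4 °C and sorted by FACS into low and high (top ~1%) gates on anti-HA and streptavidin fluorescence. Polyreactivity labels come from the gate of origin.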
For “QVQLVESGGGLVQAGGSLRLSCAASGRTFGLNAMGWYRQAPGKERELVAAITYSGGSTYYADSVKGRFTISRDNAKNTVYLQMNSLKPEDTAVYYCAKEVQTYWYHYYYWGQGTQVTVSS”, the “polyreactivity (PSR sort gate)” value is recorded as “high polyreactivity”.

Regarding “QVQLVESGGGLVQAGGSLRLSCAASGGIFIFYAMGWYRQATGKERELVAASSNVSSTNYADSVKGRFTISRDNAKNTVYLQMNSLKPEDTAVYYCAAYYYYFYHKVIWYELDYWGQGTQVTVSS”, the “polyreactivity (PSR sort gate)” value was “low polyreactivity”.

For the sequence “QVQLVESGGGLVQAGGSLRLSCAASGSTFWKYVIGWYRQEPGKERELVAAITSRGGSTYADSVKGRFTISRDNAKNTVYLQMNSLKPEDTAVYYCAATKFWYYGYDYWGQGTQVTVSS”, the “polyreactivity (PSR sort gate)” value is on record as “low polyreactivity”.

Turning to “QVQLVESGGGLVQAGGSLRISCAASGFTFRKYTMGWYRQAPGKERELVAAISRRGGSTYYADSVKGRFTISRDNAKNTVYFQMNSLKPEVTAVYYCATDHIPSVGVDYWGQGTQVTVSS”, the “polyreactivity (PSR sort gate)” value is on record as “high polyreactivity”.

As for “QVQLVDSGGGLVQAGGSLRLSCAASVQTIYQKAMGWYRPAPGKERELVAAITRSGGSTRYADSVKGRFTISRDNAKNTVYLEMSSLKPEDTSVFYCNARYRIGSWYEFGSWGQGTQVTVSS”, the “polyreactivity (PSR sort gate)” value is on record as “high polyreactivity”.

Take “QVQLVESGGGLVQAGGSLRLSCAASGSTFTYYAMGWYRQAPGKERELVAAITWSGGSTYYADSVKGRFTISRDNAKNTVYLQMNSLKPEDTAVYYCNVYSIWGTYDYWGQGTQVTVSS”: the “polyreactivity (PSR sort gate)” value was “low polyreactivity”.

In the case of “QVQLVESGGGLVQAGRSLRLSCAASGITFTGYALGWSRQATGKERELVAAISKRGARTYYADSVKGRFTISRDNAKNTVYLQMNSLKPEDTAVYYCAADSTAQDIAGLYYWGQGTQVTVSS”, the “polyreactivity (PSR sort gate)” value is reported as “high polyreactivity”.

Take “QVQLVESGGGLVQAGGSLRLSCAASGSTFAIYAMGWYRQAPGKERELVAAITRGSTSYADSVKGRFTISRDNAKNTVYLQMNSLKPEDTAVYYCAADSSRYGVIRDFDYWGQGTQVTVSS”: the “polyreactivity (PSR sort gate)” value is given as “high polyreactivity”.

As for “QVQLVESAGGLVQAGGSLRLSCAASGSIFGSYAMGGYRQAPGKERELVAAIYSSGGSTYYADSVKGRFTISRDNAKNTVYLQMNSLKPEDTAVYYCNKYVRYGDGYWGQGTQVTVSS”, the “polyreactivity (PSR sort gate)” value is on record as “high polyreactivity”.

Turning to “QDQLVESGGGLVQAGGRLRLSCAASVRIFWVNAMGWYRQAPGKERELVAAISWTSGSTYYADSVKGRFTISRDHANNTVYLMMNSLKPEDTAVYYCNKVQSGEYDYWGQGTQVTVSS”, the “polyreactivity (PSR sort gate)” value is given as “high polyreactivity”.

For the sequence “QVQLVESGGGLVQAGGSLRLSCAASGRIFPGYAMGWYRQAPGKERELVAAISERGGSTYYADSVKGRFTISRDNAKNTVYLQMNSLKPEDTAVYYCAAIWRGGYNYWGQGTQVTVSS”, the “polyreactivity (PSR sort gate)” value is recorded as “low polyreactivity”.

Take “QVQLVESGGGLVQAGGSLRLSCAASGRIFSPSDMGWYRQAPGKERELVAAIRSDGGRTHYADSVKGRFTISRDNAKNTVYLQMNSLKPEDTAVYYCARDNGRTITTTDTYDYWGQGTQVTVSS”: the “polyreactivity (PSR sort gate)” value was “low polyreactivity”.

Consider “QVQIVESGGGLVQAGGSLRLSSPASGRTLPSYAMGWYRQAPGKERELVAAITRSGGRTYYADSVKGRFTISRDNAKYTVYLQMNSLKPEDTAVYDCAARQDDYGKIYYYWGQGSQVTVSS”, for which the “polyreactivity (PSR sort gate)” value is reported as “high polyreactivity”.

As to “QVQLVESGGGLVQAGGSLRLSCAASGFIIRSYAMGWYRQAPGKERELLAAISSRGGSTYYADSVKGRFTISRDNANNTVYLQINSLKPEDTAVYYCAADWKSKRTDKYDSWGQGTQVTVSS”, the “polyreactivity (PSR sort gate)” value is “high polyreactivity”.

Consider “QVQLVESGGGLVQAGGSLRLSCAASGSTFGEYAMGWYRQAPGKERELVASITFSAGSTDYADSVKGRFTISRDNAKNTVYLQMNSLKPEDTAVYYCAADGWWPWEYDYWGQGTQVTVSS”, for which the “polyreactivity (PSR sort gate)” value is recorded as “low polyreactivity”.

With “QVQLVESGGGLVQAGGSLRLSCAASGVIFDFNAMGWYRQAPGKERELAASISRSGGSTYYADSVKGRFTISRDNAKNTVYLQMNSLKPEDTAVYYCAKASKGQYRFDYWGQGTQVTVSS”, the “polyreactivity (PSR sort gate)” value is on record as “low polyreactivity”.

“QVQRVESGGGLVQAGGSLRLSSASSGFTFRSYAMGWYRQEPGKERELVAVIASSGGSTYYADSVKGRFTFSRDNAKNTVYLQMNSLKPEDTAVYYCNRRPATRAYLYDYWGQGTQVTVSW”: the “polyreactivity (PSR sort gate)” value is given as “high polyreactivity”.

For “QVQLVESGGGLVQAGGSLRLSCAASGCTFDYNAMGWYRQAPGKEREFVAAIDYSSGSTYYADSVKGRFTISRDNAKNTVYLQMNCLKPEDTAVYYCNAPIAVGSGLFDYWGQGTQVTVSS”, the “polyreactivity (PSR sort gate)” value is “high polyreactivity”.

Consider “QVQLVESGGGLVQAGGSLRLSCAASGRTFYVNAMGWYRQAPGKERELVAAISRSGRTNYADSVKGRFTISRDNAKNTVYLQMNSLKPEDTAVYYCAAALSNVRNVRSPYDYWGQGTQVTVSS”, for which the “polyreactivity (PSR sort gate)” value was “high polyreactivity”.

For the sequence “QVQLVESGGGLVQAGGSLRLSCAASGSIFPWYAMGWYRQAPGKERELVAAISTGGSTYYADSVKGRFTISRDNAKNTVYLQMNSLKPEDTAVYYCAAAYGKYRFGYWGQGTQVTVSS”, the “polyreactivity (PSR sort gate)” value is recorded as “high polyreactivity”.

Turning to “QVQLVESGGGLVQAGGSLRLRCAASGRTFYGYDMGWYRQAPGKERELVATISSGGSTNYADSVKGRFTFSRDNAKNTVYLQMNSLKPEDTAVYYCNADRYVDPRTYFGYDYCGQGTQVTVSS”, the “polyreactivity (PSR sort gate)” value is reported as “low polyreactivity”.

On to “QVQLVESGGGIVQAGGSLRLSCAASGRIFSGNGMGWYRQAPGKEREFVAAIRFSSGSTYYADSVKGRFTISRDNAKNTVYLQMNSLKPEDTAVYYCARPSIPSRYDYWGQGTQVTVSS”, for which the “polyreactivity (PSR sort gate)” value is given as “high polyreactivity”.

In the case of “QVQLVESGGGLVQGGGSLRLSCAASGFIFRYYAMGWYRQAPGKERELVAAINGRGDSTYYADSVKGRFTISRDNAKNTVYLQMNSLKPEDTAVYYCAAQGYRYLSRDRYDYWGQGTQVTVSS”, the “polyreactivity (PSR sort gate)” value is reported as “high polyreactivity”.

As to “QVQLEESGGGLVQAGGSLRISCAASVRILSWYAIGWYRQAPGKERELVAAISVRGSTYYADSVKGRFTISRDNAKNTVYLQMNSLKPDDTAVYYSNRVWLQASTTIVVSSRRLYYWGLGTQVTVSS”, the “polyreactivity (PSR sort gate)” value is given as “high polyreactivity”.

As to “QVQLVESGGGLVQAGGSLRLSCAASGRTFGGYDMGWYRQAPGKERELVAAISSGGRTYYADSVKGRFTISRDNAKNSVYLQMNSLKPEDTAVYYCAAKYRKWPIDYWGQGTQVTVSS”, the “polyreactivity (PSR sort gate)” value is “high polyreactivity”.

Turning to “QVQLVESGGGLVQAGGSLRLSCAASGSIFPGNTMGWYRQAPGKERELVAGIDKNGGRTYYADSVKGRFTISRDNAKNTVYLQMNSLKPEDTAVYYCAADTWVFRRAFWTKYEYWGQGTQVTVSS”, the “polyreactivity (PSR sort gate)” value was “low polyreactivity”.

“QVQLVESGGGLVQAGGSLRLSCAASGRIFYTYAMGWYRQAPGKASELVAAITYRGGSTYYADSVKGRFTISRDIAKNTVYLQMNSLKPADTAVYYCAARPGRGPDSRWRYKYDYWGQGTQVTVSS”: the “polyreactivity (PSR sort gate)” value is listed as “high polyreactivity”.

As for “QVQLVESGGGLVQAGGSLRLSCAASGRIFSLYAMGWYRQAPGKERELVADITYRGGDSTYYADSVKGRFTISRDNAKNTVYLKMNSLKPEDTAVYYCAAGQPLYQRRHSSRTYYYWGQGTQVTVSS”, the “polyreactivity (PSR sort gate)” value was “high polyreactivity”.

Regarding “QVQLVESGGGLVQAGGSLRISCAASGNIFPYYAMGWYRQAPGKERELVATITRGGRTNYADSVKGRFTISRDNAKNTVYLQMNSLKPEDTAVYYCASYSYTLTYRFDYWGQGTQVTVSS”, the “polyreactivity (PSR sort gate)” value was “low polyreactivity”.

On to “QDQLVESGGGLVQAGGSLRLSCAASGGIFLYYSMGWYRQAPGKERELVAAISRGGGRTYYADSVKGRFTISRDNAKNTVYLHMNSLKPEDTAVYYCAVEYGTGYQWWEYYYWGQGTQVTVSS”, for which the “polyreactivity (PSR sort gate)” value is given as “high polyreactivity”.

Consider “QVQLVESGGGLVQAGGSLRLSCAASGFTFGGYAMGWYRQAPGKERELVAAINWSGGSTDYADSVKGRFTISRDIAKNTVYLQMNSLKPEDTAVYYCAAEGQDGRFYWGQGTQVTVSS”, for which the “polyreactivity (PSR sort gate)” value is “low polyreactivity”.

Regarding “QVQLVESGGGVVQAGGSLRLSCAASGSTISPYAMGWYRPAPGKERELVAAISSGGSTSYADSVKGRFTISRDNAKNTVYLQMNSLKPEDTAVYYCHASSPGEVPVYDYDYWGQGTQVTVSS”, the “polyreactivity (PSR sort gate)” value is “low polyreactivity”.

Consider “QVHLVESGGGLVQAGGSLRLSCAASGSISTNYPMGWYRPAPGKERQLVAAISSSGGSTYYADSVKGRFTISRDNAKYTVYLQMNSLKPEDTAVYYCAATYWGRAYQGYRNLRYGYWGQGTQVTVSS”, for which the “polyreactivity (PSR sort gate)” value is “high polyreactivity”.

With “QVQLVESGGGLVQAGGSLRLSCAASGSIFVLSAMGWYRQAPGKEREFFAAITWSGDSTYYADSVKGRFTISRDNAKNTVYLQMNSLKPEDTAVYYCAAEGNTWPADFLSYYFEFDEYWGQGTQVTVSS”, the “polyreactivity (PSR sort gate)” value is “low polyreactivity”.

With “QVQLVESGGGLFQAGGSLRVSCAASGRIFFPYAMGWYRQAPGKERELVASIRGGGSTSYADSVKGRFTFSRDNAKNTVYLQMNSLKPEDTAVYYCAATPQAYWVLWSTYYTYYYWGQGTQVTVSS”, the “polyreactivity (PSR sort gate)” value was “high polyreactivity”.

“QVQLVESGGGLVQSGGSLRLSCAASGSTFVWYAMGWYRQAPGKERELVAAITDSGDDTYYADSVKGRFTISRDNAKNTVYLQMNSLKAEDNAVYYCAVVAWSVPPYDYWGQGTQVTVSS”: the “polyreactivity (PSR sort gate)” value is on record as “low polyreactivity”.

Turning to “QVQLVESGGGLVQAGGSLRLSCAASGSIFVYNAMGWYSPAPGQERELVAAITYSGGRTYYADSVKGRFTISRDNAKNTVYVQMNSLKPEDTAVDFCAADLTSKSSPQGYRYDYWGQGTQVTVSS”, the “polyreactivity (PSR sort gate)” value is “low polyreactivity”.

Regarding “QVQLVESGGGLVQAGGSLRLSCAASGRIFILNTMGWYRQAPGKERELLAGISYSGSTYYADSVKGRFTISRDNAKNTVYLQMNSLKPDDTAVYYCAADYDAAWYNDGYYYWGQGTQVTVSS”, the “polyreactivity (PSR sort gate)” value is “low polyreactivity”.

In the case of “QEQLVESGGGLVQAGGSLRLTCAASGRTFFRYARGWYRQAPGKEREVVAAISSGGSTYYADTVKGRFTISRDNAKNTVYLQMNSLKPEDTAVYYCATRNYRLWPYVSVAYDYCGQGTQVTVSS”, the “polyreactivity (PSR sort gate)” value was “high polyreactivity”.

In the case of “QVQLVESGGGLVQAGGSLRLSCAASGLTFYAYAMGWYRQAPGKERELVAHISWTGTTTYYADSVKGRFTISRDNAKNTVYLQMNSLKPEDTAVYYCAALIYRYAVAPPGYQYWLYYWGQGTLVTVSS”, the “polyreactivity (PSR sort gate)” value is given as “low polyreactivity”.
